Measurements from the supplement of paper PMC10126150.
± gives the standard deviation of the averaged measurements.

Tested on: ATP
Experiment: switch fluorescence ratio, 500 uM ATP over buffer (Cy3 cluster intensity, sum of 5 cycles each) (fold (ratio)); higher = stronger signal-on switching upon ATP binding; sequences stand for … in TCGTCGGCAGCGTCAGATGTGTATAAGAGACAGTTTTTTTTTTTTTTTTTTTTTTTTT…TC
Conditions: aptamer strand: ATP DNA aptamer (quencher-CACCTGGGGGAGTATTGCGGAGGAAGG + anchor), 100 nM annealed; ATP concentration: 500 uM
Summary of the method: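 The fluorescence ratio divides summed target-cycle Cy3 intensity by summed buffer-cycle Cy3 intensity for each cluster and is averaged per switch-domain sequence. Cy3-labelled switching-strand clusters on a modified Illumina MiSeq flow-cell were annealed to 100 nM quencher-labelled ATP aptamer, then imaged in selection buffer and again after 15 min with 500 uM ATP at 22 °C. Five such cycles were run, with NaOH stripping and re-annealing between them, and clusters outside 100-1000 RFU were excluded.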
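Note: ATP exposure 15 min at 22 °C before imaging.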

Sequence	switch fluorescence ratio
TCAAGTGCAG	0.99 ± 0.027
TCAAGTTTTG	0.972 ± 0.015
TCAATAGAGG	1.05 ± 0.034
TCAATAGGTT	1.01 ± 0.024
TCAATGCGCC	1.46 ± 0.4
TCAATGGGAA	0.967 ± 0.026
TCAATGGTTG	0.988 ± 0.028
TCAATTTCAC	1.9 ± 1.3
TCAATTTTGT	0.997 ± 0.022
TCACAGTTGG	1.032 ± 0.0034
TCACATTATA	1.009 ± 0.0078
TCACCTTGGA	1.05 ± 0.096
TCACGGTGCT	1.15 ± 0.19
TCACGTAGGC	1.04 ± 0.053
TCACGTGGTT	1.03 ± 0.016
TCACTCTATC	1.0455 ± 0.00057
TCACTGGGTT	1.01 ± 0.068
TCACTGGTCT	0.9849 ± 0.0037
TCACTGGTTG	1.01 ± 0.011
TCACTTGGGT	0.996 ± 0.036
TCAGAAAGTG	1 ± 0.041
TCAGACAGCG	1.03 ± 0.053
TCAGACGTTC	1.07 ± 0.05

Sequence	switch fluorescence ratio
TCAGACGTTT	1.011 ± 0.009
TCAGACTGCG	0.999 ± 0.023
TCAGAGGATC	0.961 ± 0.017
TCAGAGGTAT	1.02 ± 0.014
TCAGATAGGG	0.968 ± 0.017
TCAGATGTCT	1.03 ± 0.055
TCAGCATGTC	1.27 ± 0.036
TCAGCGAATT	0.98 ± 0.015
TCAGCGTGTC	0.9648 ± 0.0079
TCAGCTGGGG	0.9799 ± 0.0058
TCAGGAATTT	1.68 ± 1.2
TCAGGAGTAA	1.82 ± 0.12
TCAGGATGGA	1 ± 0.018
TCAGGATTGA	0.98 ± 0.036
TCAGGCCCGT	1.01 ± 0.026
TCAGGGAGTA	1.04 ± 0.053
TCAGGGATGG	0.984 ± 0.042
TCAGGGGAGG	1.03 ± 0.036
TCAGGGGCAT	1.18 ± 0.3
TCAGGGGCCT	1.03 ± 0.044
TCAGGGGTT	1.15 ± 0.12
TCAGGGTGCT	1.1 ± 0.029
TCAGGGTTGC	1.03 ± 0.025

Sequence	switch fluorescence ratio
TCAGGTAATG	0.98 ± 0.033
TCAGGTAGTG	0.9875 ± 0.0078
TCAGGTATCG	1 ± 0.021
TCAGGTATGT	1.01 ± 0.038
TCAGGTTAGT	1.02 ± 0.022
TCAGTAAATT	0.965 ± 0.055
TCAGTAGGCA	1.01 ± 0.011
TCAGTCCTAT	1 ± 0.026
TCAGTCGGAT	0.9768 ± 0.0078
TCAGTGAGTG	1 ± 0.033
TCAGTGCTGT	1 ± 0.035
TCAGTGCTTA	1.01 ± 0.038
TCAGTGGATG	0.9794 ± 0.0032
TCAGTGGGGC	0.9987 ± 0.0093
TCAGTGGGGT	1.004 ± 0.0072
TCAGTTGTGC	1.01 ± 0.042
TCAGTTTACG	0.988 ± 0.019
TCAGTTTGTT	0.997 ± 0.023
TCAGTTTTCT	1.01 ± 0.057
TCATAAATTT	1.01 ± 0.018
TCATAACTGC	1.02 ± 0.029
TCATAATTAG	1 ± 0.0068
TCATAATTGA	0.99 ± 0.012

Sequence	switch fluorescence ratio
TCATACCGTA	1.09 ± 0.022
TCATACGGGG	1.01 ± 0.023
TCATAGATCG	1.01 ± 0.027
TCATAGTACG	1.02 ± 0.043
TCATAGTGTT	1.01 ± 0.04
TCATATTATG	1.02 ± 0.034
TCATATTATT	1 ± 0.033
TCATCAGCAG	2.96 ± 1.7
TCATCTAGGA	0.985 ± 0.011
TCATCTGCTG	1.17 ± 0.087
TCATGAGATT	1.02 ± 0.021
TCATGCAAAT	1.04 ± 0.031
TCATGGAATT	1 ± 0.031
TCATGGACTG	1.06 ± 0.02
TCATGGATCC	1.01 ± 0.035
TCATGGGTAA	1.01 ± 0.029
TCATGGGTGG	0.99 ± 0.02
TCATGGGTTG	0.981 ± 0.0053
TCATGGTGAT	1.022 ± 0.0013
TCATGGTTTA	1.01 ± 0.016
TCATGTAAGA	0.998 ± 0.024
TCATGTATGG	0.977 ± 0.012
TCATGTTAGG	0.994 ± 0.0075

Sequence	switch fluorescence ratio
TCATGTTCGG	1.02 ± 0.034
TCATTAATAT	1.16 ± 0.22
TCATTAGAGG	0.9942 ± 0.0067
TCATTCCACT	1.031 ± 0.0059
TCATTGGGAA	1.01 ± 0.021
TCATTGGTTT	0.998 ± 0.032
TCATTTACAT	1.04 ± 0.037
TCATTTCGCC	1.071 ± 0.0047
TCATTTCGGG	0.991 ± 0.038
TCATTTGATA	1.03 ± 0.035
TCCAAGGGGG	1.024 ± 0.0066
TCCAAGGGTA	0.997 ± 0.025
TCCAAGTCGA	1.041 ± 0.0033
TCCAATCATG	0.9765 ± 0.0095
TCCACCGGCT	1.03 ± 0.052
TCCACCGTCG	1.27 ± 0.065
TCCACCGTTC	1.66 ± 0.77
TCCACGGGG	1.12 ± 0.057
TCCAGAACCC	1 ± 0.011
TCCAGGAATT	1 ± 0.016
TCCAGGGCG	1.03 ± 0.029
TCCAGGGTCA	1.01 ± 0.025
TCCAGGTCGG	1.2 ± 0.025

Sequence	switch fluorescence ratio
TCCATAGTCG	1.03 ± 0.014
TCCATGTTGA	1.03 ± 0.019
TCCATTAAAA	0.976 ± 0.036
TCCATTAGTT	1.04 ± 0.069
TCCATTCCGA	1.17 ± 0.13
TCCATTTTCG	0.984 ± 0.025
TCCCAAACAT	1.06 ± 0.009
TCCCAAATTT	0.983 ± 0.032
TCCCATAAGC	1.099 ± 0.0051
TCCCATGGCG	1.04 ± 0.062
TCCCCATGGC	1.35 ± 0.1
TCCCGGGTAT	0.9787 ± 0.0073
TCCCGGTTTG	1.009 ± 0.01
TCCCGTAAGT	1.05 ± 0.069
TCCCTTTTGG	1.011 ± 0.0029
TCCGAGGGAG	1.05 ± 0.079
TCCGAGTATG	1.08 ± 0.027
TCCGATTGGG	0.9801 ± 0.0071
TCCGCCATGG	2.71 ± 0.28
TCCGCGACGG	1.4 ± 0.2
TCCGCGGTTT	1.23 ± 0.18
TCCGGACCGG	0.995 ± 0.019
TCCGGACCTC	1.5 ± 0.34

Sequence	switch fluorescence ratio
TCCGGCGGGA	1.26 ± 0.32
TCCGGCTGAG	1.02 ± 0.012
TCCGGGTATC	1.33 ± 0.04
TCCGGGTGGG	1.09 ± 0.079
TCCGGGTTTT	0.963 ± 0.019
TCCGGTGTG	0.97 ± 0.015
TCCGGTTTTA	0.981 ± 0.02
TCCGGTTTTG	0.979 ± 0.013
TCCGTCAGCA	4.04 ± 0.52
TCCGTGAGTG	1.07 ± 0.031
TCCGTTTGTT	0.991 ± 0.04
TCCGTTTTGG	1.03 ± 0.066
TCCGTTTTTT	1.04 ± 0.063
TCCTAATGGG	0.985 ± 0.025
TCCTACTGTA	1.1974 ± 0.00047
TCCTACTGTT	0.9957 ± 0.0061
TCCTAGAAC	0.997 ± 0.026
TCCTAGGGGG	1 ± 0.026
TCCTCATGGT	1 ± 0.022
